Results from the supplement of paper PMC9112550, “Optimization of the antimicrobial peptide Bac7 by deep mutational scanning” (BMC Biology, 2022).

System: Escherichia coli TOP10
Assay: shrunken log2 fold change of peptide-encoding DNA abundance (4.5 h post-induction vs induction); higher = less antimicrobial activity (less host growth inhibition)
Details: time post-induction: 4.5 h; library: site-saturation at positions 5, 18, 19, 20
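Further: peptides expressed intracellularly from a pBAD plasmid library in pooled LB shake-flask culture, induced with 0.3% L-arabinose, DNA abundance read by NGS, three biological replicates, DESeq2 with apeglm shrinkage.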

Sequence	shrunken log2 fold change
RRIRARPPRLPRPRPRPTRCPRP	1.1
RRIRPRPPRLPRPRPRPNAFPRP	-0.0225
RRIRHRPPRLPRPRPRPCITPRP	-0.472
RRIRFRPPRLPRPRPRPIRTPRP	-0.0861
RRIRDRPPRLPRPRPRPAYAPRP	0.058
RRIRLRPPRLPRPRPRPNKKPRP	-0.256
RRIRTRPPRLPRPRPRPLHIPRP	0.0174
RRIRHRPPRLPRPRPRPQHWPRP	-0.00395
RRIRNRPPRLPRPRPRPMEYPRP	-0.0389
RRIRQRPPRLPRPRPRPMIEPRP	-0.118
RRIRRRPPRLPRPRPRPDTVPRP	0.0777
RRIRNRPPRLPRPRPRPGVEPRP	0.604
RRIRSRPPRLPRPRPRPRMYPRP	-0.113
RRIRARPPRLPRPRPRPNAKPRP	0.262
RRIRYRPPRLPRPRPRPQRVPRP	-0.393
RRIRVRPPRLPRPRPRPSALPRP	-0.0271
RRIRQRPPRLPRPRPRPKKLPRP	-0.296
RRIRRRPPRLPRPRPRPWMQPRP	0.0811
RRIRWRPPRLPRPRPRPPMVPRP	0.104
RRIRCRPPRLPRPRPRPHESPRP	-0.123
RRIRIRPPRLPRPRPRPIYRPRP	-0.191
RRIRMRPPRLPRPRPRPPEQPRP	0.956

Sequence	shrunken log2 fold change
RRIRLRPPRLPRPRPRPLKWPRP	-0.369
RRIRLRPPRLPRPRPRPDIMPRP	-0.0927
RRIRGRPPRLPRPRPRPTKGPRP	0.2
RRIRVRPPRLPRPRPRPNNMPRP	-0.537
RRIRGRPPRLPRPRPRPEDGPRP	1.31
RRIRQRPPRLPRPRPRPFTEPRP	-0.223
RRIRPRPPRLPRPRPRPGAAPRP	0.552
RRIRYRPPRLPRPRPRPCAYPRP	-0.0775
RRIRDRPPRLPRPRPRPLWRPRP	0.152
RRIRVRPPRLPRPRPRPRNDPRP	-0.00857
RRIRTRPPRLPRPRPRPWQHPRP	-0.0511
RRIRLRPPRLPRPRPRPNMNPRP	-0.68
RRIRERPPRLPRPRPRPFKAPRP	2.45
RRIRVRPPRLPRPRPRPLSFPRP	-0.426
RRIRDRPPRLPRPRPRPSQDPRP	-0.0683
RRIRWRPPRLPRPRPRPAAFPRP	0.334
RRIRSRPPRLPRPRPRPICEPRP	0.0675
RRIRERPPRLPRPRPRPDVTPRP	0.00636
RRIRIRPPRLPRPRPRPHGWPRP	0.0102
RRIRLRPPRLPRPRPRPAEPPRP	0.188
RRIRPRPPRLPRPRPRPSDCPRP	-0.0743
RRIRGRPPRLPRPRPRPCGDPRP	0.581

Sequence	shrunken log2 fold change
RRIRFRPPRLPRPRPRPTREPRP	0.599
RRIRWRPPRLPRPRPRPYQMPRP	-0.0321
RRIRRRPPRLPRPRPRPDEFPRP	0.138
RRIRVRPPRLPRPRPRPRTFPRP	-0.284
RRIRLRPPRLPRPRPRPYAKPRP	0.0695
RRIRKRPPRLPRPRPRPDGCPRP	0.14
RRIRPRPPRLPRPRPRPFFEPRP	0.229
RRIRIRPPRLPRPRPRPGKMPRP	-0.329
RRIRVRPPRLPRPRPRPKYMPRP	-0.433
RRIRDRPPRLPRPRPRPFCNPRP	-0.0411
RRIRDRPPRLPRPRPRPLEHPRP	-0.164
RRIRTRPPRLPRPRPRPMSYPRP	0.0494
RRIRQRPPRLPRPRPRPYTEPRP	-0.00136
RRIRHRPPRLPRPRPRPTCAPRP	0.242
RRIRSRPPRLPRPRPRPEQQPRP	0.0303
RRIRRRPPRLPRPRPRPISLPRP	-0.224
RRIRTRPPRLPRPRPRPFTMPRP	-0.348
RRIRCRPPRLPRPRPRPTEKPRP	-0.293
RRIRCRPPRLPRPRPRPIPNPRP	0.0105
RRIRTRPPRLPRPRPRPADPPRP	0.0203
RRIRFRPPRLPRPRPRPETKPRP	-0.0125
RRIRLRPPRLPRPRPRPQPSPRP	0.169

Sequence	shrunken log2 fold change
RRIRNRPPRLPRPRPRPTEGPRP	0.0116
RRIRNRPPRLPRPRPRPWSLPRP	-0.0288
RRIRERPPRLPRPRPRPENWPRP	-0.0337
RRIRLRPPRLPRPRPRPHDIPRP	-0.618
RRIRARPPRLPRPRPRPPFVPRP	1.42
RRIRMRPPRLPRPRPRPNIPPRP	-0.207
RRIRERPPRLPRPRPRPLTAPRP	-0.286
RRIRWRPPRLPRPRPRPEWHPRP	0.595
RRIRDRPPRLPRPRPRPYFVPRP	-0.362
RRIRWRPPRLPRPRPRPWPCPRP	0.0272
RRIRERPPRLPRPRPRPDEAPRP	0.323
RRIRYRPPRLPRPRPRPDRYPRP	-0.0871
RRIRQRPPRLPRPRPRPKWLPRP	0.0992
RRIRFRPPRLPRPRPRPKWMPRP	-0.235
RRIRIRPPRLPRPRPRPTEPPRP	0.0374
RRIRPRPPRLPRPRPRPKFSPRP	-0.125
RRIRCRPPRLPRPRPRPNDMPRP	-0.328
RRIRIRPPRLPRPRPRPEVAPRP	0.218
RRIRSRPPRLPRPRPRPANDPRP	0.0254
RRIRERPPRLPRPRPRPFPRPRP	0.087
RRIRMRPPRLPRPRPRPNKPPRP	-0.0387
RRIRRRPPRLPRPRPRPTFRPRP	0.0132

Sequence	shrunken log2 fold change
RRIRGRPPRLPRPRPRPARLPRP	0.678
RRIRHRPPRLPRPRPRPGPPPRP	0.228
RRIRCRPPRLPRPRPRPPNIPRP	-0.573
RRIRWRPPRLPRPRPRPTMHPRP	0.454
RRIRPRPPRLPRPRPRPIMSPRP	0.0779
RRIRPRPPRLPRPRPRPYWFPRP	-0.579
RRIRKRPPRLPRPRPRPRMQPRP	0.622
RRIRDRPPRLPRPRPRPLMPPRP	0.097
RRIRFRPPRLPRPRPRPDQSPRP	0.0148
RRIRPRPPRLPRPRPRPFDAPRP	0.0141
RRIRFRPPRLPRPRPRPQHNPRP	-0.781
RRIRHRPPRLPRPRPRPVLIPRP	-0.113
RRIRARPPRLPRPRPRPESNPRP	0.553
RRIRQRPPRLPRPRPRPFIKPRP	-0.382
RRIRGRPPRLPRPRPRPHKGPRP	-0.136
RRIRIRPPRLPRPRPRPGARPRP	0.251
RRIRLRPPRLPRPRPRPGAEPRP	0.505
RRIRCRPPRLPRPRPRPMRMPRP	0.22
RRIRLRPPRLPRPRPRPWPEPRP	0.243
RRIRARPPRLPRPRPRPEFEPRP	0.75
RRIRWRPPRLPRPRPRPIRQPRP	-0.0309
